In publication PMC5431086 (Scientific Reports, 2017):
Positions of bridges follow the written chain, without caps; N, C: chain ends. No end group written: not given here.

Tests used:
Experiment in all cases: enzyme inhibition assay (panel of proteases); cyc-LHSPW tested against a panel of cancer-associated proteases (Fig. 5A); conditions not given
KLK7 = KLK7 (UniProt P49862 23-253)
PSA = PSA (UniProt P07288 18-261)
trypsin = target: trypsin
aminopeptidase A = target: T1, aminopeptidase A (UniProt Q07075 1-957)
T1 chain: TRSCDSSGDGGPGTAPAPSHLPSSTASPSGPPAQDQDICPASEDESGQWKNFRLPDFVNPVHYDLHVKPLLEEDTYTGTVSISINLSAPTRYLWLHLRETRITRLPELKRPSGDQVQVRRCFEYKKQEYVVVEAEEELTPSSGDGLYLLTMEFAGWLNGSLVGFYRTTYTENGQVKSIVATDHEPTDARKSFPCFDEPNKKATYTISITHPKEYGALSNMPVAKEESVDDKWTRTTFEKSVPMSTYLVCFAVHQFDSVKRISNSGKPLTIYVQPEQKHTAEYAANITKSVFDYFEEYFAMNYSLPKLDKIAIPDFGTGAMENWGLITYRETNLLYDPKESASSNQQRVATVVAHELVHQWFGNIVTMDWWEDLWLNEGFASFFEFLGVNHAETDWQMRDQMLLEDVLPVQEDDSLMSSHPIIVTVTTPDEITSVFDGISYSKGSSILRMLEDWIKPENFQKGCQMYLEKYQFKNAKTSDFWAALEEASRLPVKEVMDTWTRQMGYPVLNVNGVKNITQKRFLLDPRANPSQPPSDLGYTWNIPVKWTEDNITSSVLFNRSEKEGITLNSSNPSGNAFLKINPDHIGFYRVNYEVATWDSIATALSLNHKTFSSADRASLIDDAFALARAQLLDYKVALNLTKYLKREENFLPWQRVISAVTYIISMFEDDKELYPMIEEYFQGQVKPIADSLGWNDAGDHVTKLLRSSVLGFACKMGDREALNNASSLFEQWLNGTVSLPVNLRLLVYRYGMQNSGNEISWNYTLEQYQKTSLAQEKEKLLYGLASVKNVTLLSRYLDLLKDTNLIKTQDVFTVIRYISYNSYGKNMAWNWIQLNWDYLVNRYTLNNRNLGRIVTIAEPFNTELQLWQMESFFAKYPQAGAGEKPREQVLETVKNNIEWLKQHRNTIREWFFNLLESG

FAP = FAP (UniProt Q12884 1-760)
Sequence of FAP (Q12884 26-760): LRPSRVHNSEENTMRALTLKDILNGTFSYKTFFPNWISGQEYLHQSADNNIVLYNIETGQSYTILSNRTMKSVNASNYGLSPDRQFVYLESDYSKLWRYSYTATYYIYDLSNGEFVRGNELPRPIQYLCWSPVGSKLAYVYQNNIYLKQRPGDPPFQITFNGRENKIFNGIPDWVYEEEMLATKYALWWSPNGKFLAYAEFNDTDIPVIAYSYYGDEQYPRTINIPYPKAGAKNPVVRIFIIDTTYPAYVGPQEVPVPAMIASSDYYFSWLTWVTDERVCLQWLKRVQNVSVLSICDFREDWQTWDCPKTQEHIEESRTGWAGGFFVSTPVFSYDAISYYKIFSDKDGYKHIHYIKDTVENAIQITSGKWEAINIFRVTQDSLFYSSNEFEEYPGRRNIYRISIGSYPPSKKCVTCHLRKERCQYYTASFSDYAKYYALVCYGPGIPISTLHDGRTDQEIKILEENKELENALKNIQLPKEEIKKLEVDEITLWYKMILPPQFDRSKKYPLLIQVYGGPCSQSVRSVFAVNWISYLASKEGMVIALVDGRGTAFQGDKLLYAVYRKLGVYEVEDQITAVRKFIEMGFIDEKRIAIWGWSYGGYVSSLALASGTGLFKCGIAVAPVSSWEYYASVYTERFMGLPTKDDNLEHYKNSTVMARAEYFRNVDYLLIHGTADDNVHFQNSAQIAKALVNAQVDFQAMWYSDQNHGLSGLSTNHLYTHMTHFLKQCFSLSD

Measured: Ki

Sequence of KLK7 (P49862 30-253): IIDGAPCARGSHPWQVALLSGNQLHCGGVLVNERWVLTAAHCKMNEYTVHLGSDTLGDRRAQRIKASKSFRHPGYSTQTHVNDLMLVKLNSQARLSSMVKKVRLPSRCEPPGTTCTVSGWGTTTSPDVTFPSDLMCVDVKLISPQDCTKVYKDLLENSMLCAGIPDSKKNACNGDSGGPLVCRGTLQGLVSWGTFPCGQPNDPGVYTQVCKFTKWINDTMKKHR
Sequence of PSA (P07288 25-261): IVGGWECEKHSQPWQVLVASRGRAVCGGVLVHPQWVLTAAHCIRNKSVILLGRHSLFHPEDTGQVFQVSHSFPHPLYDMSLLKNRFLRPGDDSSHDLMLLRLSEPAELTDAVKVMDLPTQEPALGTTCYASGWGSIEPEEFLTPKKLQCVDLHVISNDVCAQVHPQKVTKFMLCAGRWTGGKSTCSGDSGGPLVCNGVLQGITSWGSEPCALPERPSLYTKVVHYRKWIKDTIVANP

B1: cyc-LHSPW (peptide)
peptide: CLHSPWC
modifications: disulfide 1-7
> 100 µM: all assays above
